Experimental data reported in US12064464B2, “Plantaricin NC8 alpha beta markedly enhances the effects of antibiotics” (priority 2018, dated 2024).
Entries after “also recorded” stand apart in the source; their conditions may differ. Where two headings read alike, the source gives them in different places.

Assays:
Enterococcus faecium = experiment: Broth microdilution MIC/MBC; type: cell-based; details: for MBC / MIC: peptide alone
Source text: (§1) Staphylococcus aureus CCUG 35601 (MRSA, Culture Collection, University of Gothenburg) and Staphylococcus aureus ATCC 29213 (MSSA, ATCC, Manassas, VA). Staphylococcus epidermidis ATCC 12228 (ATCC, Manassas, VA), RP62A, N15 and 10 clinical isolates of Staphylococcus epidermidis that have previously been characterized. Isolated Escherichia coli, Enterococcus faecium (including VRE), Pseudomonas aeruginosa, Klebsiella pneumoniae, Enterobacter spp and Acinetobacter baumannii were obtained from Orebro University hospital. Isolated Streptococcus mutans, Streptococcus constellatus and Streptococcus anginosus were obtained from Malmo University. The bacteria were grown on Luria-Bertani (LB) agar plates, supplemented with 5% defibrinated horse blood, and incubated at 37° C. overnight. Single colonies were inoculated into 5 ml of LB broth and incubated on a shaker (300 rpm) at 37° C. overnight. The bacterial concentration was determined by viable count and adjusted to correlate with approximately 10^9 CFU/ml.
(§2) The broth microdilution method was used to determine minimal inhibitory concentration (MIC) and minimal bactericidal concentration (MBC). Two-fold serial dilutions of the peptides were used and the final concentrations ranged from 0.097-50 μM. […] The effect of bacteriocin-antibiotic combinations was accomplished by using the same concentration series of antibiotics with a constant concentration of PLNC8 αβ (3.1 μM) in all the wells. […] All experiments were repeated at least three times.

[1] = test system: HaCaT cells infected with MSSA; experiment: Keratinocytes infected with MSSA: LDH, ELISA, RT-qPCR, scratch assay
Description: Human keratinocytes (HaCaT) were cultured in Dulbecco's modified Eagle medium (DMEM, Fisher Scientific, New York, USA) supplemented with 10% FBS (FBS, Invitrogen Ltd, Paisley, UK) incubated in a stable environment at 95% air, 5% CO2 and 37° C. The cells were used at passages 1-20.
(§3) HaCaT cells were cultured overnight in a 24-well plate at a seed-count of 2×10^5 cells per well. […] Co-stimulation was performed by infection of human keratinocytes, in the presence or absence of PLNC8 αβ, for 24 h, or infection of the cells for 1 h followed by addition of different concentrations of PLNC8 αβ for 6 h. Furthermore, infection of keratinocytes, with or without PLNC8 αβ, were monitored in real-time for 72 hours using IncuCyte Live-cell Analysis System. Bacterial load was quantified by measuring the fluorescence of green fluorescent protein (GFP) and cell viability was determined by measuring the fluorescent dye Draq7 that stains nuclei of dead cells.
ELISA was performed on supernatants retrieved from human keratinocytes that were exposed to MSSA and PLNC8 αβ. The levels of CXCL8 (Human IL-8 ELISA MAX Deluxe, Nordic Biosite, Sweden) and IL-6 (Human IL-6 ELISA MAX Deluxe, Nordic Biosite, Sweden) were quantified according to the manufacturer's instructions.

[2] = test system: S. epidermidis 157 (hGISE strain); experiment: Broth microdilution MIC/MBC; type: cell-based, Staphylococcus epidermidis; details: Table 3, peptide alone
Source text: as §1, §2

S. epidermidis N15 = experiment: Broth microdilution MIC/MBC; type: cell-based, Staphylococcus epidermidis; details: Table 1, peptide alone, 20 h; no unit in table, μM
Source text: as §1, §2

[3] = test system: S. epidermidis 126 (hGISE strain); experiment: Broth microdilution MIC/MBC; type: cell-based, Staphylococcus epidermidis; details: Table 3, peptide alone
Source text: as §1, §2

[4] = test system: S. epidermidis ATCC 12228; experiment: Broth microdilution MIC/MBC; type: cell-based, Staphylococcus epidermidis
Source text: as §1, §2

S. epidermidis 154 = experiment: Broth microdilution MIC/MBC; type: cell-based, Staphylococcus epidermidis; details: Table 3, peptide alone
Source text: as §1, §2

S. epidermidis 117 = experiment: Broth microdilution MIC/MBC; type: cell-based, Staphylococcus epidermidis; details: Table 1, peptide alone, 20 h; no unit in table, μM
Source text: as §1, §2

S. epidermidis RP62A = experiment: Broth microdilution MIC/MBC; type: cell-based, Staphylococcus epidermidis; details: Table 1, peptide alone, 20 h; no unit in table, μM
Source text: as §1, §2

[5] = Fluorescence leakage assay (CF release from liposomes); details: after 2 min; both the L-form and D-form
Description: Liposomes were prepared by dry film formation, hydration and finally extrusion through a polycarbonate membrane to form monodisperse large unilamellar vesicles. […] A dry lipid film was formed by evaporation of the chloroform by nitrogen flow and overnight lyophilization. The film was hydrated with either 10 mM phosphate buffer (PB) pH 7 or 10 mM phosphate buffer saline (PBS) pH 7, and the solution was vortexed for 1 min and put on a shaker for 1 h before extruded 21 times through a 100 nm pore-sized polycarbonate membrane. For fluorescence leakage assay the lipid film was hydrated with buffer (PBS) containing self-quenching concentration (50 mM) of 5(6)-carboxyfluorescein (CF) (Sigma Aldrich) and liposomes were prepared as described above. Removal of unencapsulated CF was done by gel filtration using a PD-25 column (GE Healthcare, Uppsala, Sweden) and liposomes with encapsulated CF were eluted with PBS. Leakage of the liposome encapsulated fluorophore CF due to additions of the bacteriocins was recorded using a fluorescence plate reader (Infinite 200, Tecan, Austria) where λex=485 nm and λem=520 nm. CF was encapsulated at self-quenching concentration, and CF release results in an increased fluorescence signal. […] In order to estimate the maximum release from each sample a final addition of 0.5% Triton X-100 was made at the end of all measurements and the total amount of CF (100% release) was estimated after 15 min incubation. The CF release is presented as percentage release for each time interval (measurements taken every minute). The percentage CF release is calculated as 100×(F−F0)/(FT−F0) where F0 is the initial fluorescence intensity of CF before peptide addition, F is the fluorescence intensity of CF at time point t and FT is the maximum fluorescence after the addition of Triton X-100.

[6] = test system: keratinocytes infected by S. aureus; experiment: IncuCyte live-cell analysis of infected keratinocytes; type: cell-based, human
Description: as §3

S. epidermidis = experiment: Broth microdilution MIC/MBC, strain not named; type: cell-based, Staphylococcus epidermidis
Source text: as §1, §2

[7] = Vancomycin resistant E. faecium (VRE)
[8] = infection 1 h, then peptide 6 h
[9] = Table 1, peptide alone, 20 h, no unit in table, μM

B1: PLNC8 αβ: two-peptide class IIb bacteriocin of L. plantarum NC8: PLNC8 α (SEQ ID NO 1) with PLNC8 β (SEQ ID NO 2) (peptide)
alpha: DLTTKLWSSWGYYLGKKARWNLKHPYVQF
beta: SVPTSVYTLGIKILWSAYKHRKTIEKSFNKGFYH
modifications: Lactobacillus plantarum NC8
For B1, the “effect of peptide alone on Enterococcus faecium” value (Enterococcus faecium) was “permeabilized and killed”, the “effect of sub-MIC peptide on antibiotics” value (Enterococcus faecium) was “significantly enhanced the effects of different antibiotics” and the MBC (Enterococcus faecium; E. faecium, first isolate) was 6.25 µM. It also gave an MIC (Enterococcus faecium; E. faecium, first isolate) of 6.25 µM, an MBC (Enterococcus faecium; E. faecium, second isolate) of 6.25 µM and an MIC (Enterococcus faecium; E. faecium, second isolate) of 3.1 µM. For the same molecule, the MBC (Enterococcus faecium; [7]) was 25 µM, the MIC (Enterococcus faecium; [7]) was 3.1 µM and the “effect of peptide alone on Enterococcus faecium” value (Enterococcus faecium; listed as PLNC8αβ) was “both inhibitory and bactericidal”. For the same molecule, the “S. aureus-mediated cytotoxicity (LDH) and cell viability” value [1, 8] was “antagonized S. aureus-mediated cytotoxicity and inflammatory responses, and promoted cell viability”, the “secretion of IL-6 and CXCL8” value [1, 8] was “significantly reduced” and the “secretion of IL-6 and CXCL8” value ([1]; infection with MSSA, 24 h) was “reduced bacteria-induced secretion of IL-6 and CXCL8”. The “wound healing (scratch assay)” value ([1]; infection with MSSA, 24 h) was “promoted wound healing in vitro of human keratinocytes following an infection with S. aureus”, the MBC [2] was over 50 µM and the MIC [2] was 12.5 µM. It also gave an MBC (S. epidermidis N15) of 6.25 µM, an MIC (S. epidermidis N15) of 6.25 µM and an MBC [3] of 50 µM. The MIC [3] was 12.5 µM, the “molar ratio PLNC8 α to PLNC8 β for inhibiting and killing” value ([4]; 20 h) was “molar ratio of 1:1 is most efficient at inhibiting and killing S. epidermidis; also recorded: ratios between 1:1 and 1:7 were also found to be effective” and the “molar ratio PLNC8 α to PLNC8 β for inhibiting and killing” value ([4]; 20 h, listed as PLNC8αβ) was “molar ratio of 1:1 is most efficient at inhibiting and killing S. epidermidis”. For the same molecule, the MBC [4, 9] was 12.5 µM, the MIC [4, 9] was 6.25 µM and the MBC ([4]; Table 2, peptide alone) was 12.5 µM. For the same molecule, the MIC ([4]; Table 2, peptide alone) was 6.25 µM, the MBC (S. epidermidis 154) was 12.5 µM and the MIC (S. epidermidis 154) was 6.25 µM. It also gave an MBC (S. epidermidis 117) of 12.5 µM, an MIC (S. epidermidis 117) of 12.5 µM and an MBC (S. epidermidis RP62A) of 6.25 µM. The MIC (S. epidermidis RP62A) was 6.25 µM, the lysis of liposomes [5] was “complete lysis of liposomes after 2 min” and the “bacterial growth (GFP fluorescence) prevented and delayed” value ([6]; S. aureus MOI:0.1) was “up to 38 h”. For the same molecule, the “time for which a single dose prevented bacterial growth and protected the cells” value ([6]; S. aureus MOI:0.1) was “up to 42 h”, the “time for which a single dose prevented bacterial growth and protected the cells” value ([6]; S. aureus MOI:1) was “up to 32 h” and the “decrease of MIC and MBC of gentamicin by the peptides” value (S. epidermidis; S. epidermidis, FIG. 15) was 15-30 fold. For the same molecule, the “decrease of MIC and MBC of rifampicin by the peptides” value (S. epidermidis; S. epidermidis, FIG. 15) was 100 fold, the “decrease of MIC and MBC of vancomycin by the peptides” value (S. epidermidis; S. epidermidis, FIG. 15) was 2 fold and the “inhibition of S. epidermidis isolated from PJIs” value (S. epidermidis; incl. hGISE, FIG. 14) was “effectively inhibits different strains of S. epidermidis isolated from PJIs, including S. epidermidis (hGISE)”.
